In the assay the target is … HLA-A*01 complex (soluble, biotinylated). The experiment in a line: BIAcore SPR; pHLA immobilised via biotin, soluble TCR injected. For orientation: SPR reads the build-up and loss of mass on a sensor chip optically.

Here are results for 1 molecule from US20120027739A1.

As usually defined, the Kd is the concentration at which binding is half-saturated. A higher Kd goes with lower affinity. The koff is the first-order rate constant of dissociation. Low values mean slow dissociation, high ones fast dissociation.

B1: soluble disulfide-linked MAGE-A3 TCR: alpha chain with variable domain SEQ ID No: 8, reference TCR beta chain (TCR, V domains shown)
V domain 1: KQEVTQIPAALSVPEGENLVLNCSFTDSAIYNLQWFRQDPGKGLTSLLLVRPYQREQTSGRLNASLDKSSGRSTLYIAASQPGDSATYLCAVRPGGAGSYQLTFGKGTKLSVIP
V domain 2: KAGVTQTPRYLIKTRGQQVTLSCSPISGHRSVSWYQQTPGQGLQFLFEYFSETQRNKGNFPGRFSGRQFSNSRSEMNVSTLELGDSALYLCASSPNMADEQYFGPGTRLTVTE
Molecule B1 displayed a Kd of 6.55 µM, a T½ of 6.1 s and a koff of 0.114 s⁻¹.
